Data: article PMC3810402

Tests used:
Conditions in all cases: modification not given
[1] = target: MDM2 (synMDM2) 25-109 (Homo sapiens), Q00987; assay: SPR
[2] = target: T1, MDMX (synMDMX) 24-108 (Homo sapiens), O15151; assay: SPR
T1 chain: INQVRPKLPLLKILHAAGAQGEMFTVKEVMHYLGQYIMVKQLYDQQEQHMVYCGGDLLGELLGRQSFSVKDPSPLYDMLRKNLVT

[3] = target: MDM2 (synMDM2) 25-109 (Homo sapiens), Q00987; assay: SPR; remark: listed apart in the source
[4] = target: MDM2 (synMDM2) 25-109 (Homo sapiens), Q00987; assay: SPR direct

Chain of MDM2 (synMDM2) 25-109 (Homo sapiens), Q00987 (Q00987 25-109): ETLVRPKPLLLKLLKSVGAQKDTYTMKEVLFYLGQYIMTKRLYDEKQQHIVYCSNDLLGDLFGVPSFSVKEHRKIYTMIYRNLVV

Binder | Kd [1] [nM] | Kd [2] [nM] | Kd [3] [nM] | Kd [4] [nM]
CYSFDCLWKCLAMGFSSGKCINSKCKC [stoppin-1] | 790 | 994 | 320 | 
CYSFDCLWKCLAMGFRRGKCRRRKCKC [stoppin-2] |  |  |  | 493
